Results taken from patent publication US10385116 (OMNIOX, dated 2019).

B1: Thermoanaerobacter tengcongensis L144F H-NOX-foldon-His6 fusion protein (monomer unit) (other)
chain: MKGTIVGTWIKTLRDLYGNDVVDESLKSVGWEPDRVITPLEDIDDDEVRRIFAKVSEKTGKNVNEIWREVGRQNIKTFSEWFPSYFAGRRLVNFLMMMDEVHLQLTKMIKGATPPRLIAKPVAKDAIEMEYVSKRKMYDYFLGFIEGSSKFFKEEISVEEVERGEKDGFSRLKVRIKFKNPVFEYKKNLEGSGGYIPEAPRDGQAYVRKDGEWVLLSTFLRGSHHHHHH
modifications: heme (porphyrin IX) cofactor bound non-covalently (so in the source)
notes: 229 amino acids, 26,677 AMU as a monomer; Three of these chains associate through the foldon domain to form the about 80 kDa H-NOX trimer; It is entered as the monomer unit so that the self-association can be written as a pair; also called H-NOX-foldon fusion protein; H-NOX-foldon protein
B2: H-NOX variant L144F-foldon fusion protein with no His6 tag at the C-terminus (monomer unit of the trimer) (other)
chain: MKGTIVGTWIKTLRDLYGNDVVDESLKSVGWEPDRVITPLEDIDDDEVRRIFAKVSEKTGKNVNEIWREVGRQNIKTFSEWFPSYFAGRRLVNFLMMMDEVHLQLTKMIKGATPPRLIAKPVAKDAIEMEYVSKRKMYDYFLGFIEGSSKFFKEEISVEEVERGEKDGFSRLKVRIKFKNPVFEYKKNLEGSGGYIPEAPRDGQAYVRKDGEWVLLSTFL
modifications: non-covalently bound heme cofactor is not carried by the letters
notes: No His6 tag; also called H-NOX+foldon; L144F H-NOX trimer without His6

Experiments:
[1] = target: the molecule itself; experiment: analytical size exclusion chromatography (Superdex 200 10/300 GL); self-association into a homotrimer
[2] = target: the molecule itself; experiment: size exclusion chromatography; self-association of H-NOX+foldon monomers into a homotrimer

Row | Protein | binding result [1] | binding result [2]
1 | B1 | binds | 
2 | B2 |  | binds
